Results published in article PMC3807708.

Tests used:
[1] = target: extracellular domain of human interferon-γ receptor 1 (IFN-γ-Rx), mutant H222R (human) (UniProt P15260); test: SPR; His-tagged receptor immobilised on Ni2+-coated HTG chip; IFN-γ-SC as analyte; PBST; 35 °C; preliminary data of temperature dependency
[2] = target: extracellular domain of human interferon-γ receptor 1 (IFN-γ-Rx), mutant N96W (human) (UniProt P15260); test: as above
[3] = target: extracellular domain of human interferon-γ receptor 1 (IFN-γ-Rx), wild type (human) (UniProt P15260); test: as above
[4] = target: extracellular domain of human interferon-γ receptor 1 (IFN-γ-Rx), mutant H222R (human) (UniProt P15260); test: SPR; His-tagged receptor immobilised on Ni2+-coated HTG chip; IFN-γ-SC as analyte; PBST; 15 °C; preliminary data of temperature dependency
[5] = target: extracellular domain of human interferon-γ receptor 1 (IFN-γ-Rx), mutant S95R (human) (UniProt P15260); test: as above
[6] = target: extracellular domain of human interferon-γ receptor 1 (IFN-γ-Rx), mutant N70G (human) (UniProt P15260); test: as above
[7] = target: extracellular domain of human interferon-γ receptor 1 (IFN-γ-Rx), mutant N96W (human) (UniProt P15260); test: as above
[8] = target: extracellular domain of human interferon-γ receptor 1 (IFN-γ-Rx), wild type (human) (UniProt P15260); test: as above
[9] = target: extracellular domain of human interferon-γ receptor 1 (IFN-γ-Rx), mutant N70G (human) (UniProt P15260); test: SPR; His-tagged receptor immobilised on Ni2+-activated HTG chip (ProteOn XPR36); IFN-γ-SC as analyte, 1.2 to 99 nM; PBST (PBS pH 7.4, 0.005% Tween20); 25 °C; 1:1 Langmuir with drift; averages over four different batches of IFN-γ-SC
[10] = target: extracellular domain of human interferon-γ receptor 1 (IFN-γ-Rx), mutant N96W (human) (UniProt P15260); test: as above
[11] = target: extracellular domain of human interferon-γ receptor 1 (IFN-γ-Rx), wild type (human) (UniProt P15260); test: as above
[12] = target: extracellular domain of human interferon-γ receptor 1 (IFN-γ-Rx), mutant H222R (human) (UniProt P15260); test: SPR; His-tagged receptor immobilised on Ni2+-coated HTG chip; IFN-γ-SC as analyte; PBST; 30 °C; preliminary data of temperature dependency
[13] = target: extracellular domain of human interferon-γ receptor 1 (IFN-γ-Rx), mutant S95R (human) (UniProt P15260); test: as above
[14] = target: extracellular domain of human interferon-γ receptor 1 (IFN-γ-Rx), mutant N70G (human) (UniProt P15260); test: as above
[15] = target: extracellular domain of human interferon-γ receptor 1 (IFN-γ-Rx), mutant N96W (human) (UniProt P15260); test: as above
[16] = target: extracellular domain of human interferon-γ receptor 1 (IFN-γ-Rx), wild type (human) (UniProt P15260); test: as above
[17] = target: extracellular domain of human interferon-γ receptor 1 (IFN-γ-Rx), mutant H222R (human) (UniProt P15260); test: SPR; His-tagged receptor immobilised on Ni2+-coated HTG chip; IFN-γ-SC as analyte; PBST; 25 °C; preliminary data of temperature dependency
[18] = target: extracellular domain of human interferon-γ receptor 1 (IFN-γ-Rx), mutant S95R (human) (UniProt P15260); test: as above
[19] = target: extracellular domain of human interferon-γ receptor 1 (IFN-γ-Rx), mutant N96W (human) (UniProt P15260); test: as above
[20] = target: extracellular domain of human interferon-γ receptor 1 (IFN-γ-Rx), wild type (human) (UniProt P15260); test: as above

Kd [1]: 103 nM
Kd [2]: 24.3 nM
Kd [3]: 92.8 nM
Kd [4]: 16.4 nM
Kd [5]: 38.6 nM
Kd [6]: 14.7 nM
Kd [7]: 5.55 nM
Kd [8]: 16.8 nM
Kd [9]: 19 nM
Kd [10]: 5.3 nM
Kd [11]: 21 nM
Kd [12]: 56 nM
Kd [13]: 107 nM
Kd [14]: 49.2 nM
Kd [15]: 12.2 nM
Kd [16]: 59.9 nM
Kd [17]: 30.1 nM
Kd [18]: 69.4 nM
Kd [19]: 6.1 nM
Kd [20]: 30.5 nM
Substance: single-chain form of human interferon-γ (IFN-γ-SC) (ligand)
